Measurements published in US20030134310A1.

Columns and labels:
[1] = biological target: control mRNA-protein fusion molecule containing an optimized v-abl phosphorylation site (…), phosphorylated by v-abl; assay: immunoprecipitation of the mRNA-peptide fusion with 4G10 after the v-abl kinase reaction
[2] = biological target: TC26 fragment of Shg (clone obtained in round five of the selection)
[3] = biological target: control peptides (r-series) containing the same amino acids as the test peptides, but in a scrambled order

Molecule | percent of fusion molecules immunoprecipitated [1] [%] | phosphorylation in vitro (full-length Shg protein) | phosphorylation of mutagenized TC26 peptides with [γ-32P]ATP [2] | v-abl kinase activity on 5 µM substrate EAIYAAPFAKKK [3]
4G10 anti-phosphotyrosine antibody (Upstate Biotechnology) | 3 |  |  | 
recombinant v-abl tyrosine kinase (New England Biolabs) (protein) YITPVNSLEKHSWYHGPVSRNAAEYLLSSGINGSFLVRESESSPGQRSISLRYEGRVYHYRINTASDGKLYVSSESRFNTLAELVHHHSTVADGLITTLHYPAPKRNKPTIYGVSPNYDKWEMERTDITMKHKLGGGQYGEVYEGVWKKYSLTVAVKTLKEDTMEVEEFLKEAAVMKEIKHPNLVQLLGVCTREPPFYIITEFMTYGNLLDYLRECNRQEVSAVVLLYMATQISSAMEYLEKKNFIHRDLAARNCLVGENHLVKVADFGLSRLMTGDTYTAHAGAKFPIKWTAPESLAYNKFSIKSDVWAFGVLLWEIATYGMSPYPGIDLSQVYELLEKDYRMERPEGCPEKVYELMRACWQWNPSDRPSFAEIHQAFETMFQESSISDEVEKELGKRG |  | the full-length Shg protein was phosphorylated by both v-abl and ZAP 70 in vitro | only the first tyrosine is a substrate for v-abl | did not have a significant effect on v-abl kinase activity
ZAP 70 kinase (protein) MPDPAAHLPFFYGSISRAEAEEHLKLAGMADGLFLLRQCLRSLGGYVLSLVHDVRFHHFPIERQLNGTYAIAGGKAHCGPAELCEFYSRDPDGLPCNLRKPCNRPSGLEPQPGVFDCLRDAMVRDYVRQTWKLEGEALEQAIISQAPQVEKLIATTAHERMPWYHSSLTREEAERKLYSGAQTDGKFLLRPRKEQGTYALSLIYGKTVYHYLISQDKAGKYCIPEGTKFDTLWQLVEYLKLKADGLIYCLKEACPNSSASNASGAAAPTLPAHPSTLTHPQRRIDTLNSDGYTPEPARITSPDKPRPMPMDTSVYESPYSDPEELKDKKLFLKRDNLLIADIELGCGNFGSVRQGVYRMRKKQIDVAIKVLKQGTEKADTEEMMREAQIMHQLDNPYIVRLIGVCQAEALMLVMEMAGGGPLHKFLVGKREEIPVSNVAELLHQVSMGMKYLEEKNFVHRDLAARNVLLVNRHYAKISDFGLSKALGADDSYYTARSAGKWPLKWYAPECINFRKFSSRSDVWSYGVTMWEALSYGQKPYKKMKGPEVMAFIEQGKRMECPPECPPELYALMSDCWIYKWEDRPDFLTVEQRMRACYYSLASKVEGPPGSTQKAEAACA |  | the full-length Shg protein was phosphorylated by both v-abl and ZAP 70 in vitro |  | 
